Target: FZD1/2/4/5/7/8
Assay: cell-based or functional assay

B1: Fab-Dia (bispecific antibody)
heavy: EVQLVESGGGLVQPGGSLRLSCAASGFNIHSSSIHWVRQAPGKGLEWVAATYSSFGSITYADSVKGRFTISADTSKNTAYLQMNSLRAEDTAVYYCARYHHPFGYALDYWGQGTLVTVSSASTKGPSVFPLAPSSKSTSGGTAALGCLVKDYFPEPVTVSWNSGALTSGVHTFPAVLQSSGLYSLSSVVTVPSSSLGTQTYICNVNHKPSNTKVDKKVEPKSCDKTHTGGSGGEVQLVESGGGLVQPGGSLRLSCAASGFTISYSSIHWVRQAPGKGLEWVASISPYYGYTYYADSVKGRFTISADTSKNTAYLQMNSLRAEDTAVYYCARSSYFPWFSAMDYWGQGTLVTVSSGGGGSDIQMTQSPSSLSASVGDRVTITCRASQSVSSAVAWYQQKPGKAPKLLIYSASSLYSGVPSRFSGSRSGTDFTLTISSLQPEDFATYYCQQYYWPITFGQGTKVEIK
light: DIQMTQSPSSLSASVGDRVTITCRASQSVSSAVAWYQQKPGKAPKLLIYSASSLYSGVPSRFSGSRSGTDFTLTISSLQPEDFATYYCQQGVYLFTFGQGTKVEIKRTVAAPSVFIFPPSDEQLKSGTASVVCLLNNFYPREAKVQWKVDNALQSGNSQESVTEQDSKDSTYSLSSTLTLSKADYEKHKVYACEVTHQGLSSPVTKSFNRGECGGGGSEVQLVESGGGLVQPGGSLRLSCAASGFTISSYYIHWVRQAPGKGLEWVASIYSSYGYTSYADSVKGRFTISADTSKNTAYLQMNSLRAEDTAVYYCARTVRGSKKPYFSGWAMDYWGQGTLVTVSSGGGGSDIQMTQSPSSLSASVGDRVTITCRASQSVSSAVAWYQQKPGKAPKLLIYSASSLYSGVPSRFSGSRSGTDFTLTISSLQPEDFATYYCQQYYFLITFGQGTKVEIK
In the case of B1, the EC50 (nM), TOPFLASH assay is reported as 0.4 nM and the Maximal Signal (% Wnt3a maxima) (% Wnt3a maxima) is reported as 42.

B2: CH3 (Dia-CH3-Dia) (bispecific antibody)
chain: MNLLLILTFVAAAVAEFEVQLVESGGGLVQPGGSLRLSCAASGFNIGSSSIHWVRQAPGKGLEWVASIYSAFASTSYADSVKGRFTISADTSKNTAYLQMNSLRAEDTAVYYCARYHFPFGFALDYWGQGTLVTVSSGGGGSDIQMTQSPSSLSASVGDRVTITCRASQSVSSAVAWYQQKPGKAPKLLIYSASSLYSGVPSRFSGSRSGTDFTLTISSLQPEDFATYYCQQGVYLFTFGQGTKVEIKDKTHTKVEPKTSDKTHTCPPCPGQPREPQVYTLPPSREEMTKNQVSLTCLVKGFYPSDIAVEWESNGQPENNYKTTPPVLDSDGSFFLYSKLTVDKSRWQQGNVFSCSVMHEALHNHYTQKSLSLSPGKGTTAASGSSGGSSSGAGRTEVQLVESGGGLVQPGGSLRLSCAASGFNISYSSIHWVRQAPGKGLEWVAYISSYYGYTYYADSVKGRFTISADTSKNTAYLQMNSLRAEDTAVYYCARAHYFPWAGAMDYWGQGTLVTVSSGGGGSDIQMTQSPSSLSASVGDRVTITCRASQSVSSAVAWYQQKPGKAPKLLIYSASSLYSGVPSRFSGSRSGTDFTLTISSLQPEDFATYYCQQYSWGPFTFGQGTKVEIK
B2 showed a Maximal Signal (% Wnt3a maxima) (% Wnt3a maxima) of 22.

B3: CT0003 (bispecific antibody)
chain 1: MNLLLILTFVAAAVAEFEVQLVESGGGLVQPGGSLRLSCAASGFNISSYYIHWVRQAPGKGLEWVASIYSSYGYTSYADSVKGRFTISADTSKNTAYLQMNSLRAEDTAVYYCARTVRGSKKPYFSGWAMDYWGQGTLVTVSSGGGGSDIQMTQSPSSLSASVGDRVTITCRASQSVSSAVAWYQQKPGKAPKLLIYSASSLYSGVPSRFSGSRSGTDFTLTISSLQPEDFATYYCQQYSWGPFTFGQGTKVEIKLEDKTHTKVEPKSSDKTHNCPPCPAPELLGGPSVFLFPPKPKDTLMISRTPEVTCVVVDVSHEDPEVKFNWYVDGVEVHNAKTKPREEQYNSTYRVVSVLTVLHQDWLNGKEYKCKVSNKALPAPIEKTISKAKGQPREPQVYTLPPIRELMTSNQVSLSCAVKGFYPSDIAVEWESNGQPENNYKTTPPVLDSDGSFFLVSKLTVDKSRWQQGNVFSCSVMHEALHNHYTQKSLSLSPGKSGSETPGTSESATPESGGGEVQLVESGGGLVQPGGSLRLSCAASGFNIHSSSIHWVRQAPGKGLEWVAATYSSFGSITYADSVKGRFTISADTSKNTAYLQMNSLRAEDTAVYYCARYHHPFGYALDYWGQGTLVTVSSGTTAASGSSGGSSSGADIQMTQSPSSLSASVGDRVTITCRASQSVSSAVAWYQQKPGKAPKLLIYSASSLYSGVPSRFSGSRSGTDFTLTISSLQPEDFATYYCQQGVYLFTFGQGTKVEIK
chain 2: MNLLLILTFVAAAVAEFEVQLVESGGGLVQPGGSLRLSCAASGFNISYSSIHWVRQAPGKGLEWVAYISSYYGYTYYADSVKGRFTISADTSKNTAYLQMNSLRAEDTAVYYCARAHYFPWAGAMDYWGQGTLVTVSSGGGGDIQMTQSPSSLSASVGDRVTITCRASQSVSSAVAWYQQKPGKAPKLLIYSASSLYSGVPSRFSGSRSGTDFTLTISSLQPEDFATYYCQQYYWPITFGQGTKVEIKLEDKTHTKVEPKTSDKTHTCPPCPAPELLGGPSVFLFPPKPKDTLMISRTPEVTCVVVDVSHEDPEVKFNWYVDGVEVHNAKTKPREEQYNSTYRVVSVLTVLHQDWLNGKEYKCKVSNKALPAPIEKTISKAKGQPREPMVFDLPPSREEMTKNQVSLWCMVKGFYPSDIAVEWESNGQPENNYKTTPPVLDSDGSFFLYSKLTVDKSRWQQGNVFSCSVMHEALHNHYTQKSLSLSPGKSGSETPGTSESATPESGGGEVQLVESGGGLVQPGGSLRLSCAASGFNIHSSSIHWVRQAPGKGLEWVAATYSSFGSITYADSVKGRFTISADTSKNTAYLQMNSLRAEDTAVYYCARYHHPFGYALDYWGQGTLVTVSSGTTAASGSSGGSSSGADIQMTQSPSSLSASVGDRVTITCRASQSVSSAVAWYQQKPGKAPKLLIYSASSLYSGVPSRFSGSRSGTDFTLTISSLQPEDFATYYCQQGVYLFTFGQGTKVEIK
B3 was tested, and the % Wnt Maxima Avg was 42%, the EC50 (nM), TOPFLASH assay was 0.4 nM and the Maximal Signal (% Wnt3a maxima) (% Wnt3a maxima) was 42. For the same binder, the Topflash EC50 (nM) Avg was 0.4 nM.

B4: CM0011 (Dia-Fc-Dia) (bispecific antibody)
chain 1: MNLLLILTFVAAAVAEFEVQLVESGGGLVQPGGSLRLSCAASGFNIGSSSIHWVRQAPGKGLEWVASIYSAFASTSYADSVKGRFTISADTSKNTAYLQMNSLRAEDTAVYYCARYHFPFGFALDYWGQGTLVTVSSGGGGSDIQMTQSPSSLSASVGDRVTITCRASQSVSSAVAWYQQKPGKAPKLLIYSASSLYSGVPSRFSGSRSGTDFTLTISSLQPEDFATYYCQQGVYLFTFGQGTKVEIKLEDKTHTKVEPKSSDKTHNCPPCPAPELLGGPSVFLFPPKPKDTLMISRTPEVTCVVVDVSHEDPEVKFNWYVDGVEVHNAKTKPREEQYNSTYRVVSVLTVLHQDWLNGKEYKCKVSNKALPAPIEKTISKAKGQPREPQVYTLPPIRELMTSNQVSLSCAVKGFYPSDIAVEWESNGQPENNYKTTPPVLDSDGSFFLVSKLTVDKSRWQQGNVFSCSVMHEALHNHYTQKSLSLSPGKSGSETPGTSESATPESGGGEVQLVESGGGLVQPGGSLRLSCAASGFNISSYYIHWVRQAPGKGLEWVASIYSSYGYTSYADSVKGRFTISADTSKNTAYLQMNSLRAEDTAVYYCARTVRGSKKPYFSGWAMDYWGQGTLVTVSSGGGGSDIQMTQSPSSLSASVGDRVTITCRASQSVSSAVAWYQQKPGKAPKLLIYSASSLYSGVPSRFSGSRSGTDFTLTISSLQPEDFATYYCQQYSWGPFTFGQGTKVEIK
chain 2: MNLLLILTFVAAAVAEFEVQLVESGGGLVQPGGSLRLSCAASGFNIGSSSIHWVRQAPGKGLEWVASIYSAFASTSYADSVKGRFTISADTSKNTAYLQMNSLRAEDTAVYYCARYHFPFGFALDYWGQGTLVTVSSGGGGSDIQMTQSPSSLSASVGDRVTITCRASQSVSSAVAWYQQKPGKAPKLLIYSASSLYSGVPSRFSGSRSGTDFTLTISSLQPEDFATYYCQQGVYLFTFGQGTKVEIKLEDKTHTKVEPKTSDKTHTCPPCPAPELLGGPSVFLFPPKPKDTLMISRTPEVTCVVVDVSHEDPEVKFNWYVDGVEVHNAKTKPREEQYNSTYRVVSVLTVLHQDWLNGKEYKCKVSNKALPAPIEKTISKAKGQPREPMVFDLPPSREEMTKNQVSLWCMVKGFYPSDIAVEWESNGQPENNYKTTPPVLDSDGSFFLYSKLTVDKSRWQQGNVFSCSVMHEALHNHYTQKSLSLSPGKSGSETPGTSESATPESGGGEVQLVESGGGLVQPGGSLRLSCAASGFNISYSSIHWVRQAPGKGLEWVAYISSYYGYTYYADSVKGRFTISADTSKNTAYLQMNSLRAEDTAVYYCARAHYFPWAGAMDYWGQGTLVTVSSGGGGSDIQMTQSPSSLSASVGDRVTITCRASQSVSSAVAWYQQKPGKAPKLLIYSASSLYSGVPSRFSGSRSGTDFTLTISSLQPEDFATYYCQQYYWPITFGQGTKVEIK
For B4, the % Wnt Maxima Avg was 63%, the EC50 (nM), TOPFLASH assay was 0.3 nM and the Maximal Signal (% Wnt3a maxima) (% Wnt3a maxima) was 63. For the same binder, the Topflash EC50 (nM) Avg was 0.3 nM.
